Bridge positions count the residues as written; N and C are the ends. Square brackets hold non-standard residues; d marks the D form. Ends that are not written are not given here. NMeL = CN[C@@H](CC(C)C)C(=O)O; Pen = CC(C)(S)[C@H](N)C(=O)O
B1: Peptide No. 45 (peptide)
peptide: QRF[Pen]TGHFG[dY]LYPCNGP-NH2
modifications: disulfide 4-14; N-terminus assumed
SMILES: CC(C)C[C@@H]1NC(=O)[C@@H](Cc2ccc(O)cc2)NC(=O)CNC(=O)[C@H](Cc2ccccc2)NC(=O)[C@H](Cc2c[nH]cn2)NC(=O)CNC(=O)[C@H]([C@@H](C)O)NC(=O)[C@@H](NC(=O)[C@H](Cc2ccccc2)NC(=O)[C@H](CCCNC(=N)N)NC(=O)[C@@H](N)CCC(N)=O)C(C)(C)SSC[C@@H](C(=O)N[C@@H](CC(N)=O)C(=O)NCC(=O)N2CCC[C@H]2C(N)=O)NC(=O)[C@@H]2CCCN2C(=O)[C@H](Cc2ccc(O)cc2)NC1=O
B2: Peptide No. 52 (peptide)
peptide: QRF[Pen]TGHF[dF]GLYPCNGP-NH2
modifications: disulfide 4-14; N-terminus assumed
SMILES: CC(C)C[C@@H]1NC(=O)CNC(=O)[C@@H](Cc2ccccc2)NC(=O)[C@H](Cc2ccccc2)NC(=O)[C@H](Cc2c[nH]cn2)NC(=O)CNC(=O)[C@H]([C@@H](C)O)NC(=O)[C@@H](NC(=O)[C@H](Cc2ccccc2)NC(=O)[C@H](CCCNC(=N)N)NC(=O)[C@@H](N)CCC(N)=O)C(C)(C)SSC[C@@H](C(=O)N[C@@H](CC(N)=O)C(=O)NCC(=O)N2CCC[C@H]2C(N)=O)NC(=O)[C@@H]2CCCN2C(=O)[C@H](Cc2ccc(O)cc2)NC1=O
B3: Peptide No. 148 (peptide)
peptide: QRF[Pen]TGHF[dA][dA]LYPCNGP-NH2
modifications: disulfide 4-14; N-terminus assumed
SMILES: CC(C)C[C@@H]1NC(=O)[C@@H](C)NC(=O)[C@@H](C)NC(=O)[C@H](Cc2ccccc2)NC(=O)[C@H](Cc2c[nH]cn2)NC(=O)CNC(=O)[C@H]([C@@H](C)O)NC(=O)[C@@H](NC(=O)[C@H](Cc2ccccc2)NC(=O)[C@H](CCCNC(=N)N)NC(=O)[C@@H](N)CCC(N)=O)C(C)(C)SSC[C@@H](C(=O)N[C@@H](CC(N)=O)C(=O)NCC(=O)N2CCC[C@H]2C(N)=O)NC(=O)[C@@H]2CCCN2C(=O)[C@H](Cc2ccc(O)cc2)NC1=O
B4: Peptide No. 155 (peptide)
peptide: QRF[Pen]TGHF[dF]GPYPCNGP-NH2
modifications: disulfide 4-14; N-terminus assumed
SMILES: C[C@@H](O)[C@@H]1NC(=O)[C@@H](NC(=O)[C@H](Cc2ccccc2)NC(=O)[C@H](CCCNC(=N)N)NC(=O)[C@@H](N)CCC(N)=O)C(C)(C)SSC[C@@H](C(=O)N[C@@H](CC(N)=O)C(=O)NCC(=O)N2CCC[C@H]2C(N)=O)NC(=O)[C@@H]2CCCN2C(=O)[C@H](Cc2ccc(O)cc2)NC(=O)[C@@H]2CCCN2C(=O)CNC(=O)[C@@H](Cc2ccccc2)NC(=O)[C@H](Cc2ccccc2)NC(=O)[C@H](Cc2c[nH]cn2)NC(=O)CNC1=O
B5: Peptide No. 203 (peptide)
peptide: QRF[Pen]TGHF[dF]PLYPCNGP-NH2
modifications: disulfide 4-14; N-terminus assumed
SMILES: CC(C)C[C@@H]1NC(=O)[C@@H]2CCCN2C(=O)[C@@H](Cc2ccccc2)NC(=O)[C@H](Cc2ccccc2)NC(=O)[C@H](Cc2c[nH]cn2)NC(=O)CNC(=O)[C@H]([C@@H](C)O)NC(=O)[C@@H](NC(=O)[C@H](Cc2ccccc2)NC(=O)[C@H](CCCNC(=N)N)NC(=O)[C@@H](N)CCC(N)=O)C(C)(C)SSC[C@@H](C(=O)N[C@@H](CC(N)=O)C(=O)NCC(=O)N2CCC[C@H]2C(N)=O)NC(=O)[C@@H]2CCCN2C(=O)[C@H](Cc2ccc(O)cc2)NC1=O
B6: Peptide No. 150 (peptide)
peptide: QRF[Pen]TGHF[dF][dP]LYPCNGP-NH2
modifications: disulfide 4-14; N-terminus assumed
SMILES: CC(C)C[C@@H]1NC(=O)[C@H]2CCCN2C(=O)[C@@H](Cc2ccccc2)NC(=O)[C@H](Cc2ccccc2)NC(=O)[C@H](Cc2c[nH]cn2)NC(=O)CNC(=O)[C@H]([C@@H](C)O)NC(=O)[C@@H](NC(=O)[C@H](Cc2ccccc2)NC(=O)[C@H](CCCNC(=N)N)NC(=O)[C@@H](N)CCC(N)=O)C(C)(C)SSC[C@@H](C(=O)N[C@@H](CC(N)=O)C(=O)NCC(=O)N2CCC[C@H]2C(N)=O)NC(=O)[C@@H]2CCCN2C(=O)[C@H](Cc2ccc(O)cc2)NC1=O
B7: Peptide No. 153 (peptide)
peptide: QRF[Pen]TGHF[dF]G[NMeL]YPCNGP-NH2
modifications: disulfide 4-14; N-terminus assumed
SMILES: CC(C)C[C@H]1C(=O)N[C@@H](Cc2ccc(O)cc2)C(=O)N2CCC[C@H]2C(=O)N[C@H](C(=O)N[C@@H](CC(N)=O)C(=O)NCC(=O)N2CCC[C@H]2C(N)=O)CSSC(C)(C)[C@H](NC(=O)[C@H](Cc2ccccc2)NC(=O)[C@H](CCCNC(=N)N)NC(=O)[C@@H](N)CCC(N)=O)C(=O)N[C@@H]([C@@H](C)O)C(=O)NCC(=O)N[C@@H](Cc2c[nH]cn2)C(=O)N[C@@H](Cc2ccccc2)C(=O)N[C@H](Cc2ccccc2)C(=O)NCC(=O)N1C
B8: Peptide No. 50 (peptide)
peptide: QRF[Pen]TGHF[dH]GLYPCNGP-NH2
modifications: disulfide 4-14; N-terminus assumed
SMILES: CC(C)C[C@@H]1NC(=O)CNC(=O)[C@@H](Cc2c[nH]cn2)NC(=O)[C@H](Cc2ccccc2)NC(=O)[C@H](Cc2c[nH]cn2)NC(=O)CNC(=O)[C@H]([C@@H](C)O)NC(=O)[C@@H](NC(=O)[C@H](Cc2ccccc2)NC(=O)[C@H](CCCNC(=N)N)NC(=O)[C@@H](N)CCC(N)=O)C(C)(C)SSC[C@@H](C(=O)N[C@@H](CC(N)=O)C(=O)NCC(=O)N2CCC[C@H]2C(N)=O)NC(=O)[C@@H]2CCCN2C(=O)[C@H](Cc2ccc(O)cc2)NC1=O
B9: Peptide No. 49 (peptide)
peptide: QRF[Pen]TGHF[dR]GLYPCNGP-NH2
modifications: disulfide 4-14; N-terminus assumed
SMILES: CC(C)C[C@@H]1NC(=O)CNC(=O)[C@@H](CCCNC(=N)N)NC(=O)[C@H](Cc2ccccc2)NC(=O)[C@H](Cc2c[nH]cn2)NC(=O)CNC(=O)[C@H]([C@@H](C)O)NC(=O)[C@@H](NC(=O)[C@H](Cc2ccccc2)NC(=O)[C@H](CCCNC(=N)N)NC(=O)[C@@H](N)CCC(N)=O)C(C)(C)SSC[C@@H](C(=O)N[C@@H](CC(N)=O)C(=O)NCC(=O)N2CCC[C@H]2C(N)=O)NC(=O)[C@@H]2CCCN2C(=O)[C@H](Cc2ccc(O)cc2)NC1=O
B10: Peptide No. 48 (peptide)
peptide: QRF[Pen]TGHF[dP]GLYPCNGP-NH2
modifications: disulfide 4-14; N-terminus assumed
SMILES: CC(C)C[C@@H]1NC(=O)CNC(=O)[C@H]2CCCN2C(=O)[C@H](Cc2ccccc2)NC(=O)[C@H](Cc2c[nH]cn2)NC(=O)CNC(=O)[C@H]([C@@H](C)O)NC(=O)[C@@H](NC(=O)[C@H](Cc2ccccc2)NC(=O)[C@H](CCCNC(=N)N)NC(=O)[C@@H](N)CCC(N)=O)C(C)(C)SSC[C@@H](C(=O)N[C@@H](CC(N)=O)C(=O)NCC(=O)N2CCC[C@H]2C(N)=O)NC(=O)[C@@H]2CCCN2C(=O)[C@H](Cc2ccc(O)cc2)NC1=O
B11: Peptide No. 152 (peptide)
peptide: QRF[Pen]TGHF[dP][dP]LYPCNGP-NH2
modifications: disulfide 4-14; N-terminus assumed
SMILES: CC(C)C[C@@H]1NC(=O)[C@H]2CCCN2C(=O)[C@H]2CCCN2C(=O)[C@H](Cc2ccccc2)NC(=O)[C@H](Cc2c[nH]cn2)NC(=O)CNC(=O)[C@H]([C@@H](C)O)NC(=O)[C@@H](NC(=O)[C@H](Cc2ccccc2)NC(=O)[C@H](CCCNC(=N)N)NC(=O)[C@@H](N)CCC(N)=O)C(C)(C)SSC[C@@H](C(=O)N[C@@H](CC(N)=O)C(=O)NCC(=O)N2CCC[C@H]2C(N)=O)NC(=O)[C@@H]2CCCN2C(=O)[C@H](Cc2ccc(O)cc2)NC1=O
B12: Peptide No. 95 (peptide)
peptide: QRF[Pen]TGHWGGLYPCNGP-NH2
modifications: disulfide 4-14; N-terminus assumed
SMILES: CC(C)C[C@@H]1NC(=O)CNC(=O)CNC(=O)[C@H](Cc2c[nH]c3ccccc23)NC(=O)[C@H](Cc2c[nH]cn2)NC(=O)CNC(=O)[C@H]([C@@H](C)O)NC(=O)[C@@H](NC(=O)[C@H](Cc2ccccc2)NC(=O)[C@H](CCCNC(=N)N)NC(=O)[C@@H](N)CCC(N)=O)C(C)(C)SSC[C@@H](C(=O)N[C@@H](CC(N)=O)C(=O)NCC(=O)N2CCC[C@H]2C(N)=O)NC(=O)[C@@H]2CCCN2C(=O)[C@H](Cc2ccc(O)cc2)NC1=O
B13: Peptide No. 271 (peptide)
peptide: RFCTGXFGGLYPC
modifications: Pen 3; triazolylAla 6 (1,2,3-triazole side chain); Sar 9; NMeL 10; disulfide 3-13; C-terminal amide
B14: Peptide No. 269 (peptide)
peptide: RFCTGXFGGLYPC
modifications: Pen 3; Thz(Me) 6 (N-methyl-thiazolium); Sar 9; NMeL 10; disulfide 3-13; C-terminal CONH2

Biological target: T1, soluble human FcRn (shFcRn) (human, UniProt P55899 24-297; P61769 21-119)
T1 construct: Biotinylated for the ELISA, amine-coupled to a CM5 chip for SPR; also called biotinylated shFcRn
Experiment: SPR pH 6
Procedure: The following steps were performed to cross-link soluble human or cynomolgus FcRn to the dextran surface of a CM5 sensor chip (Biacore AB, Uppsala, Sweden) by an amine coupling reaction involving 1-ethyl-(3-dimethylaminopropyl)-carbodiimide hydrochloride (EDC) (Biacore AB, Uppsala, Sweden) and N-hydroxysuccinimide (NHS) (Biacore AB, Uppsala, Sweden) as recommended by Biacore (BIAapplications Handbook, version AB, section 4.2, Biacore AB, Uppsala, Sweden). […] Residual sites on the FcRn flow cell were blocked with 1 M ethanolamine hydrochloride pH 8.5 (Biacore AB, Uppsala, Sweden). A control flow cell was blocked with ethanolamine for reference subtraction. For analysis of the monomeric peptides, FcRn was coated to a final density of 4000-5000 response units (RU). For analysis of the peptide dimers, FcRn was coated to a density of 2000-2500 RU. All SPR measurements were performed using a BIACORE 3000 Instrument (Biacore AB Uppsala, Sweden). For measurements done at either pH 6 or pH 7.4, experiments were performed in 50 mM phosphate, 100 mM sodium chloride, 0.01% surfactant P20 (Biacore AB, Uppsala, Sweden).
Ten, 2-fold dilutions of the peptide were injected over the FcRn-CM5 chip at a rate of 20 μl/min for 2 min. The peptide was dissociated from the chip for 2.5 minutes with buffer. Any remaining peptide was removed from the chip with a 30 second injection of HBS-P buffer (Biacore AB, Uppsala, Sweden) at a rate of 30 μl/min. Sensorgrams were generated and analyzed using BiaEval software version 3.1 (Biacore AB, Uppsala, Sweden). The equilibrium RU observed for each injection was plotted against concentration. The equilibrium KD values were derived by analysis of the plots using the steady state affinity model included in the BiaEval software.

Kd [µM] | Binder
5.2 | QRFCTGHFXGLYPCNGP (Pen 4; Aib 9; disulfide 4-14; C-terminal amide) [Peptide No. 54]
1.5 | B1
0.51 | B2
0.45 | B3
18.3 | B4
3.8 | B5
0.72 | B6
0.24 | B7

Biological target: T1, soluble human FcRn (shFcRn)
Experiment: IgG competition ELISA

IC50 [µM] | Binder
17 | QRFCTGHFXGLYPCNGP (Pen 4; Aib 9; disulfide 4-14; C-terminal amide) [Peptide No. 54]
2.8 | B2
39 | B4
3.6 | B8
4.1 | B9
5.9 | B6
5 | B10
1.3 | B7
21 | B11

Biological target: T1, soluble human FcRn (shFcRn)
Experiment: IgG competition ELISA
Remark: another data set of the same source

IC50 [µM] | Binder
26 | B12

Biological target: T1, soluble human FcRn (shFcRn)
Experiment: IgG competition ELISA
Remark: another data set of the same source
Procedure: The wells were coated with 100 μl/well of 1 μg/ml biotinylated-shFcRn in Buffer A. The plate was sealed and incubated at 37° C. for 2 hours. Afterwards, the plate was washed with 200 μl/well of Buffer B (Buffer B: 100 mM MES pH 6, 150 mM NaCl, 0.5% BSA IgG-free (Jackson ImmunoResearch, West Grove, Pa.), 0.05% Tween-20). […] To allow for mixing, the plate was rocked for 2 minutes, sealed and incubated at 37° C. for 2 hours. […] The plate was covered, incubated for 30 minutes at room temperature and washed 4 times with 200 μl/well of ice-cold buffer B. SureBlue TMB substrate solution (100 μl/well, KPL, Gaithersburg, Md.) was added and the plate was allowed to incubate at room temperature until color developed, which took 5 to 10 minutes. Once color developed, 100 μl/well of TMB stop solution (KPL, Gaithersburg, Md.) was added and the absorbance was measured at 450 nm. The data was plotted as absorbance vs. peptide concentration to derive the inhibitory concentration 50% (IC₅₀) values.

IC50 [µM] | Binder
160 | RFCTGXFGGLYPC (Pen 3; PropargylGly 6; Sar 9; NMeLeu 10; disulfide 3-13; C-terminal amide) [Peptide No. 261]
5.7 | B13
2.4 | B14
44 | QRFCTGXFGGLYPCNGP (Pen 4; Thz 7; disulfide 4-14; C-terminal amide) [Peptide No. 91]
